The values below come from publication PMC4499140 (Nucleic Acids Research, 2015).

For series [1], the target named is Rv1222 G133C (Fe-BABE);E. coli RNAP-σ70 holoenzyme (Mycobacterium tuberculosis …, UniProt L0T905;P0A7Z4;P0A8V2;P0A8T7;P0A800;P00579 1-154;1-329;1-1342;1-1407;2-91;1-613, C70A;C73A;C109G;G133C|). Kind of series: Fe-BABE footprinting.
Series [2] addresses Mycobacterium tuberculosis RNA polymerase core (Mycobacterium tuberculosis, UniProt P9WGZ1;P9WGY9;P9WGY7). The series can be described thus: fluorescence polarisation. A general note: In fluorescence polarisation assays a small probe gives low polarisation when free and higher when bound to something large.

B1: lacCONS15 promoter DNA (dsDNA)
DNA 1: CACCCCAGGCTTGACACTTTATGCTTCGGCTCGTATAATGTGTGGAATTGTGAGGAGAGGCGGATAACAATTTCACACAGG
DNA 2: CCTGTGTGAAATTGTTATCCGCCTCTCCTCACAATTCCACACATTATACGAGCCGAAGCATAAAGTGTCAAGCCTGGGGTG
In the case of B1, the binding result in series [1] is reported as “binds”.

B2: Rv1222ΔC, TMR labelled (domain or fragment)
chain: MADPGSVGHVFRRAFSWLPAQFASQSDAPVGAPRQFRSTEHLSIEAIAAFVDGELRMNAHLRAAHHLSLCAQCAAEVDDQSRARAALRDSHPIRIPSTLLGLLSEIPRCPPEGPSKGSSGGSSQGPPDGAAAGFGDRFADGDGG
modifications: TMR label
In series [2], B2 returned a Kd of 72 ± 26 nM.

Broadly, the Kd is the equilibrium constant for the complex coming apart. A low value points to a tighter complex.
